The record followed here is PMC3894171, “Defining NELF-E RNA Binding in HIV-1 and Promoter-Proximal Pause Regions”.

The target in data set [1] is T1, dNELF-E(mut) (Drosophila, UniProt P92204 1-280, N173E;K174D;V175M;E177P;D178T;F179L).
T1 sequence: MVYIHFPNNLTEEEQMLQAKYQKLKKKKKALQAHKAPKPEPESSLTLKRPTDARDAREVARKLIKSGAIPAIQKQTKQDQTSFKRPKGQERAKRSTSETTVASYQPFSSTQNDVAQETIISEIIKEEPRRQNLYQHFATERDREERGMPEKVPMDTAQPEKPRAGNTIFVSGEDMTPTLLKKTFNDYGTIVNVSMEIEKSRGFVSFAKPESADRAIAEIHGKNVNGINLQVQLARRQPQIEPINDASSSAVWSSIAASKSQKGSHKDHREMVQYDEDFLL
The data set can be described thus: F-EMSA; 10 mM HEPES-NaOH pH 7.5, 100 mM NaCl, 25 mM KCl, 1 mM MgCl2, 0.02% Tween-20, 0.01% IGEPAL CA-630, 10 µg/ml yeast tRNA; 2 nM RNA, 0-2000 nM protein, 1-2 h, binding temperature not stated; gel 5% acrylamide 0.5X TBE at 4 °C. The conditions noted are these: protein: recombinant, tags: N-terminal His6 (pHIS-parallel1), label: 3' fluorescein (5-thiosemicarbazide).

The target in data set [2] is T2, hNELF-E(mut) (human, UniProt P18615 1-380, E269N;D270K;M271V;P273E;T274D;L275F). The description is as above. To be noted: protein: recombinant; tags: N-terminal His6 (pHIS-parallel1); label: 3' fluorescein (5-thiosemicarbazide); hairpin with UCU bulge.
T2 sequence (P18615 whole entry E269N/D270K/M271V/P273E/T274D/L275F): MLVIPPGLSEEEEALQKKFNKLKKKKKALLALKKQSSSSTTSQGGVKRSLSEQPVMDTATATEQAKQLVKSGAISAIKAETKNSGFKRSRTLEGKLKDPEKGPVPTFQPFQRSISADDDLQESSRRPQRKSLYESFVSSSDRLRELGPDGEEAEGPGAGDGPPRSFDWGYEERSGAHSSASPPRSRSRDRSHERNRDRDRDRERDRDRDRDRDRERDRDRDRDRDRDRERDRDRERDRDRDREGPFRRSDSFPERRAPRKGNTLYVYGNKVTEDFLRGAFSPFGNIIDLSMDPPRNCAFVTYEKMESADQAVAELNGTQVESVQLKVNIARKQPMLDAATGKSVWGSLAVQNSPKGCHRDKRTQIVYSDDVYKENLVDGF
Data set [3] has as its target T1, dNELF-E(mut). The data set can be described thus: fluorescence polarization; 10 mM HEPES-NaOH pH 7.5, 100 mM NaCl, 25 mM KCl, 1 mM MgCl2, 0.02% Tween-20, 0.01% IGEPAL CA-630, 10 µg/ml yeast tRNA; 2 nM RNA, 0-2000 nM protein, 1-2 h, binding temperature not stated; gel 5% acrylamide 0.5X TBE at 4 °C. To be noted: protein: recombinant, tags: N-terminal His6 (pHIS-parallel1), label: 3' fluorescein (5-thiosemicarbazide). For orientation: In fluorescence polarisation assays a small probe gives low polarisation when free and higher when bound to something large.

Data set [4] has as its target T2, hNELF-E(mut). The description is as above. To be noted: protein: recombinant; tags: N-terminal His6 (pHIS-parallel1); label: 3' fluorescein (5-thiosemicarbazide); hairpin with UCU bulge.

Usually Kd stands for the free concentration of one partner at which half of the binding sites on the other are occupied at equilibrium, for simple one-to-one binding.

B1: HIV-1 TAR (structured_RNA)
RNA: GGUCUCUCUGGUUAGACCAGAUCUGAGCCUGGGAGCUCUCUGGCUAACUAGGGAACC
For the molecule B1, the Kd with dNELF-E(mut) [1] (hairpin with UCU bulge) was found to be 270 ± 10 nM; with hNELF-E(mut) [2], 258 ± 17 nM; in the data set with dNELF-E(mut) [3] (hairpin with UCU bulge), 130 ± 10 nM; in the data set with hNELF-E(mut) [4] it was 153 ± 7 nM.
For GGCCCCACUGAGGAUGCCCACGGGCGAUUGGGGCCA (structured_RNA) [Napt1min], the Kd came to 350 ± 50 nM in the data set with dNELF-E(mut) [1] (putative K-turn stem-loop) and 95 ± 6 nM with dNELF-E(mut) [3] (putative K-turn stem-loop).

B2: HIV-1 TAR+A (structured_RNA)
RNA: GGUCUCUCUGGUUAGACCAGAUCUGAGCCUGAGGAGCUCUCUGGCUAACUAGGGAACC
For the molecule B2, the Kd with dNELF-E(mut) [1] (hairpin with UCU bulge) was found to be 280 ± 30 nM; with hNELF-E(mut) [2], 233 ± 40 nM; with dNELF-E(mut) [3] (hairpin with UCU bulge), 120 ± 10 nM; in the data set with hNELF-E(mut) [4], 170 ± 5 nM.
